Experimental data published in patent publication US20180163176A1 (NANTKWEST, published 2018).

Molecular target: CD33 (UniProt P20138 18-364, limits assumed)
Experiment: cell-based or functional assay

CD33, sequence (P20138 18-364 limits assumed): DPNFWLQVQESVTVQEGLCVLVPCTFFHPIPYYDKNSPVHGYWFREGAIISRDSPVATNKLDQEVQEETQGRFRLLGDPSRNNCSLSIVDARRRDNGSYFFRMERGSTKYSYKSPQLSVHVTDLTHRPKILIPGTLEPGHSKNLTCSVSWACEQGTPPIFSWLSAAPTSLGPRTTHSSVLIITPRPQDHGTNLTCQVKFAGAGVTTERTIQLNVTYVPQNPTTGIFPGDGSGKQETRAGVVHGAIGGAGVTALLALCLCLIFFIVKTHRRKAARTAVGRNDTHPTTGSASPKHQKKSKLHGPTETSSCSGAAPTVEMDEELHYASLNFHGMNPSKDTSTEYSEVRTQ

B1: CD33-CAR (other)
chain: MDWIWRILFLVGAATGAHSAQPADIQMTQSPSSLSASVGDRVTITCRASESVDNYGISFMNWFQQKPGKAPKLLIYAASNQGSGVPSRFSGSGSGTDFTLTISSLQPDDFATYYCQQSKEVPWTFGQGTKVEIKGGGGSGGGGSGGGGSQVQLVQSGAEVKKPGSSVKVSCKASGYTFTDYNMHWVRQAPGQGLEWIGYIYPYNGGTGYNQKFKSKATITADESTNTAYMELSSLRSEDTAVYYCARGRPAMDYWGQGTLVTVSSALSNSIMYFSHFVPVFLPAKPTTTPAPRPPTPAPTIASQPLSLRPEASRPAAGGAVHTRGLDPKLCYLLDGILFIYGVILTALFLRVKFSRSADAPAYQQGQNQLYNELNLGRREEYDVLDKRRGRDPEMGGKPRRKNPQEGLYNELQKDKMAEAYSEIGMKGERRRGKGHDGLYQGLSTATKDTYDALHMQALPPR
For B1, the “cytotoxicity against aNK resistant cell lines at 24 hours (flow cytometry assay)” value was > 80%.
